From patent publication US20250163116A1, “NEW METHOD TO TREAT INFECTIOUS DISEASES” (INSERM (INSTITUT NATIONAL DE LA SANTÉ ET DE LA RECHERCHE …, priority 2022, published 2025) come the findings set out here.

B1: nANGPTL4: N-terminal fragment of ANGPTL4, aa 26-164, SEQ ID NO: 24, purchased from R&D Systems (protein)
chain: GPVQSKSPRFASWDEMNVLAHGLLQLGQGLREHAERTRSQLSALERRLSACGSACQGTEGSTDLPLAPESRVDPEVLHSLQTQLKAQNSRIQQLFHKVAQQQRHLEKQHLRIQHLQSQFGLLDHKHLDHEVAKPARRK
modifications: nANGPTL4
B2: cANGPTL4: C-terminal fragment of ANGPTL4, aa 164-406, fibrinogen-like domain, purchased from R&D Systems (protein, listed as Homo sapiens)
chain: RLPEMAQPVDPAHNVSRLHRLPRDCQELFQVGERQSGLFEIQPQGSPPFLVNCKMTSDGGWTVIQRRHDGSVDFNRPWEAYKAGFGDPHGEFWLGLEKVHSITGDRNSRLAVQLRDWDGNAELLQFSVHLGGEDTAYSLQLTAPVAGQLGATTVPPSGLSVPFSTWDQDHDLRRDKNCAKSLSGGWWFGTCSHSNLNGQYFRSIPQQRQKLKKGIFWKTWRGRYYPLQATTMLIQPMAAEAAS
B3: ANGPTL4: Recombinant human ANGPTL4 (Angiopoietin-like 4), full length, SEQ ID NO: 1, purchased from R&D Systems (protein, listed as Homo sapiens)
chain: MSGAPTAGAALMLCAATAVLLSAQGGPVQSKSPRFASWDEMNVLAHGLLQLGQGLREHAERTRSQLSALERRLSACGSACQGTEGSTDLPLAPESRVDPEVLHSLQTQLKAQNSRIQQLFHKVAQQQRHLEKQHLRIQHLQSQFGLLDHKHLDHEVAKPARRKRLPEMAQPVDPAHNVSRLHRLPRDCQELFQVGERQSGLFEIQPQGSPPFLVNCKMTSDGGWTVIQRRHDGSVDFNRPWEAYKAGFGDPHGEFWLGLEKVHSITGDRNSRLAVQLRDWDGNAELLQFSVHLGGEDTAYSLQLTAPVAGQLGATTVPPSGLSVPFSTWDQDHDLRRDKNCAKSLSGGWWFGTCSHSNLNGQYFRSIPQQRQKLKKGIFWKTWRGRYYPLQATTMLIQPMAAEAAS

This assay concerns HDMECs infected with Nm 2C4.3. The experiment in a line: Integrity of HDMEC monolayers infected with N. meningitidis (VE-cadherin at intercellular junctions, immunofluorescence). As to conditions: 1 μg/mL added 30 min after initiation of Nm infection, 2 h 30. It is filed as cell-based, human. As for the experimental part:
FIG. 1. Exogenous ANGPTL4 exerts protective effects on dermal microvascular endothelial cells infected by N. meningitidis. A. HDMECs were infected with Nm 2C4.3 for 30 min and treated with 1 μg/mL of recombinant human ANGPTL4 for 2 h 30. Cells were fixed and stained for cellular actin, VE-cadherin and DAPI and analyzed by fluorescent microscopy. Quantifications of VE-cadherin enrichment at intercellular junctions and of intercellular spaces area were performed on 30 fields with Image J software. Kruskal-Wallis test ** P<0.001; P<0.0001. B. HDMEC were either uninfected or infected with N. meningitidis 2C4.3 for 30 min and treated with 1 μg mL−1 of recombinant human ANGPTL4, its N-terminal portion (nANGPTL4) or its C-terminal portion (cANGPTL4) for 2 h 30. Caspase-3/7 reagent was added to detect apoptosis in real time over 9 h using the IncuCyte® Live-Cell Analysis System
FIG. 2: Vascular protection is conferred by the N-terminal part of ANGPTL4. A, Schematic representation of ANGPTL4 structure. ANGPTL4 contains a N-terminal portion (nANGPTL4, aa 26-164) linked to a C-terminal portion (cANGPTL4, aa 164-406) by a cleavable linker. nANGPTL4 contains a highly conserved lipoprotein lipase (LPL) binding domain (aa 44-55), two cysteines on position 76 and 80 involved in protein oligomerization and a coiled-coil domain (aa 100-143). The C-terminal portion encodes a fibrinogen-like domain. B, HDMECs were infected with Nm 2C4.3 for 30 min and treated with 1 μg/mL of recombinant human ANGPTL4, nANGPTL4 or cANGPTL4 for 2 h 30. Cells were fixed and stained for cellular actin, VE-cadherin and DAPI and analyzed by fluorescent microscopy. B. Quantifications of VE-cadherin enrichment at intercellular junctions and of intercellular spaces area were performed on 30 fields with Image J software. Kruskal-Wallis test ** P<0.001, *** P<0.0001 of four independent experiments performed in triplicate.
FIG. 3: Vascular protection is conferred by a novel binding motif (aa 66-80) present in the N-terminal part of ANGPTL4. A, the indicated peptides were derived from nANGPTL4. B, HDMECs were infected with Nm 2C4.3 for 30 min and treated with 1 μg/mL of each peptides. Quantifications of VE-cadherin enrichment at intercellular junctions was performed on 30 fields with Image J software.
FIG. 4: Vascular protection is conferred by interaction of nANGPTL4 with Syndecan-4. A, HDMECs were infected with Nm 2C4.3 for 30 min and treated with 1 μg/mL of recombinant human ANGPTL4, nANGPTL4 or cANGPTL4 in the absence or in the presence of anti-SDC4 antibody for 2 h 30. Cells were fixed and stained for cellular actin, VE-cadherin and DAPI and analysed by fluorescent microscopy. Quantifications of VE-cadherin enrichment at intercellular junctions and of intercellular spaces area were performed on 30 fields with Image J software. Kruskal-Wallis test ** P<0.001, **** P<0.00001, ns1 P=0.2172; ns2 P>0.999 of four independent experiments performed in triplicate. B, HDMECs were transfected with small interfering RNA (siRNA) against SDC4 or non-targeting siRNA controls for 48 h, infected with Nm 2C4.3 for 30 min and treated with 1 μg/mL of recombinant human ANGPTL4, for 2 h 30. Quantifications of VE-cadherin enrichment at intercellular junctions and of intercellular spaces area were performed on 30 fields with Image J software. Kruskal-Wallis test ** P<0.001, *** P<0.0001, of two independent experiments performed in triplicate.
The day of infection, a suspension of the bacteria from an overnight culture on GCB agar plate was adjusted to OD600=0.05 and incubated for 2 h at 37° C. in a pre-warmed cell culture medium. Cells were infected with bacteria at a multiplicity of infection (MOI) of 100 bacteria per cell (OD=0.1) for 30 minutes, washed twice to remove non-adherent bacteria and infection was allowed to proceed for various periods of time. Cells were then washed and fixed in 4% paraformaldehyde for immunofluorescence analysis. […]
For the molecule B1, the “protective effect on monolayer integrity (adherens junctions, cell detachment) of infected HDMECs” value (shortened to “protective effect on monolayer integrity”) is “sufficient to maintain cell monolayer integrity upon infection”. Regarding B2, the “protective effect on monolayer integrity” value is “no significant protective effect”. Consider B3, for which the “protective effect on monolayer integrity” value is recorded as “entirely preserved the integrity of this monolayer”.
